Among the data in article PMC9259572 are smFRET donor fluorescence lifetime of WT EGFR in nanodiscs (both bilayers) with 1 μM epigen; peak of the distribution values, retold here.

The target in this assay is full-length epidermal growth factor receptor (EGFR) with a SNAP tag at the C-terminal position, embedded in a lipid bilayer nanodisc (UniProt P00533).

B1: Human epigen (ligand)
chain: AAVTVTPPITAQQGNWTVNKTEADNIEGPIALKFSHLCLEDHNSYCINGACAFHHELEKAICRCFTGYTGERCEHLTLTSYAVDSYEKYIAIGIGVGLLLSGFLVIFYCYIRKRCLKLKSPYNVCSGERRPL
As for B1, the smFRET donor fluorescence lifetime of WT EGFR in nanodiscs (both bilayers) with 1 μM epigen; peak of the distribution came to 1.5 ns.
